Source: US20240360203A1
Read-outs that look alike come from different tables or passages of the source.

Tests used:
[1] = biological target: T1, SARS-CoV-2 spike S2 peptide 1149-1167, biotinylated (SARS-CoV-2); assay: SPR, Fab over captured biotin-peptide, 25 C
[2] = biological target: T2, SARS-CoV-2 spike S2 peptide 1143-1162, biotinylated (SARS-CoV-2); assay: SPR, Fab over captured biotin-peptide, 25 C
[3] = biological target: T1, SARS-CoV-2 spike S2 peptide 1149-1167, …; assay: SPR, Fab over captured biotin-peptide, 25 C; remark: listed apart in the source
[4] = biological target: HIV-1 Env peptide, biotinylated (negative control) (HIV-1); assay: DELFIA on captured biotin-peptide; parameters: unit not given beside the values
[5] = biological target: T1, SARS-CoV-2 spike S2 peptide 1149-1167, …; assay: DELFIA on captured biotin-peptide; parameters: unit not given beside the values
[6] = biological target: T2, SARS-CoV-2 spike S2 peptide 1143-1162, …; assay: DELFIA on captured biotin-peptide; parameters: unit not given beside the values

| Binder | Kd [1] | Kd [2] | koff [2] | kon [2] | Kd [3] | koff [3] | kon [3] | AUC [4] | AUC [5] | AUC [6] |
| --- | --- | --- | --- | --- | --- | --- | --- | --- | --- | --- |
| AB-1 Fab (Fab, V domains shown) VH: EVQLVESGAEVKKPGESLKISCKGSGYTFTRYWIGWVRQMPGKGLEWMGIIYPGDSDVRYSPSFQGHVTISADKSISTAYLQWNSLKASDTAMYYCARLPQYCSKGVCYRWFDPWGQGTLVTVSS VL: EIVLTQSPSSVSASVGDRVTITCRASQGISSWLAWYQQKPGKAPKLLIYAASSLQSGVPSRFSGSGSGTDFTLTISSLQPEDFATYYCQQGHSFPYTFGQGTNLEIK | 0.925 nM | 12.3 nM | 0.037 s⁻¹ | 3e+06 M⁻¹ s⁻¹ | 0.9 nM | 0.00241 s⁻¹ | 2.61e+06 M⁻¹ s⁻¹ |  |  |  |
| Reference Antibody (antibody, V domains shown) VH: EVQLVESGAEVKKPGESLKISCKGSGYTFTRYWIGWVRQMPGKGLEWMGIIYPGDSDTRYSPSFQGHVTISADKSISTAYLQWNSLKASDTAMYYCARLPQYCSNGVCQRWFDPWGQGTLVTVSS VL: EIVLTQSPSSVSASVGDRVTITCRASQGISSWLAWYQQKPGKAPKLLIYAASSLQSGVPSRFSGSGSGTDFTLTISSLQPEDFATYYCQQGNSFPYTFGQGTNLEIK |  |  |  |  |  |  |  | 16100 | 3.05e+06 |  |
| Reference Antibody Fab (Fab, V domains shown) VH: EVQLVESGAEVKKPGESLKISCKGSGYTFTRYWIGWVRQMPGKGLEWMGIIYPGDSDTRYSPSFQGHVTISADKSISTAYLQWNSLKASDTAMYYCARLPQYCSNGVCQRWFDPWGQGTLVTVSS VL: EIVLTQSPSSVSASVGDRVTITCRASQGISSWLAWYQQKPGKAPKLLIYAASSLQSGVPSRFSGSGSGTDFTLTISSLQPEDFATYYCQQGNSFPYTFGQGTNLEIK | 5.36 nM |  |  |  | 5.4 nM | 0.00498 s⁻¹ | 929000 M⁻¹ s⁻¹ |  |  |  |
| AB-1 (antibody, V domains shown) VH: EVQLVESGAEVKKPGESLKISCKGSGYTFTRYWIGWVRQMPGKGLEWMGIIYPGDSDVRYSPSFQGHVTISADKSISTAYLQWNSLKASDTAMYYCARLPQYCSKGVCYRWFDPWGQGTLVTVSS VL: EIVLTQSPSSVSASVGDRVTITCRASQGISSWLAWYQQKPGKAPKLLIYAASSLQSGVPSRFSGSGSGTDFTLTISSLQPEDFATYYCQQGHSFPYTFGQGTNLEIK |  |  |  |  |  |  |  | 9860 | 3.27e+06 | 3.52e+06 |
